Source: the supplement of paper PMC7877785
± gives the uncertainty stated by the source.

Assay: self-splicing fitness, log relative to wild type (ln ratio); higher = more splicing; Tetrahymena group I intron in knt gene, E. coli kanamycin selection, DiMSum; sequences stand for … in CUCUCU…GGAGGGAAAAGUUAUCAGGCAUGCACCUGGUAGCUAGUCUUUAAACCAAUAGAUUGCAUCGGUUUAAAAGGCAAGACCGUCAAAUUGCGGGAAAGGGGUCAACAGCCGUUCAGUACCAAGUCUCAGGGGAAACUUUGAGAUGGCCUUGCAAAGGGUAUGGUAAUAAGCUGACGGACAUGGUCCUAACCACGCAGCCAAGUCCUAAGUCAACAGAUCUUCUGUUGAUAUGGAUGCAGUUCACAGACUAAAUGUCGGUCGGGGAAGAUGUAUUCUUCUCAUAAGAUAUAGUCGGACCUCUCCUUAAUGGGAGCUAGCGGAUGAAGUGAUGCAACACUGGAGCCGCUGGGAACUAAUUUGUAUGCGAAAGUAUAUUGAUUAGUUUUGGAGUACUCGUGGUCG
Method in brief: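 Fitness was computed with DiMSum as the error-weighted combination of replicate fold changes, kanamycin versus none, each normalised to wild type. The library randomised all eight intron nucleotides of the P1ex region, with the intron placed in the knt kanamycin-resistance gene on pET-22b(+) in E. coli BL21(DE3). Six replicate transformations were grown overnight at 37°C or 30°C on LB agar with or without 25 μg/mL kanamycin, plus 100 μg/mL carbenicillin, 50 μM IPTG and 0.2% rhamnose. Pooled colonies were amplicon-sequenced on an Illumina HiSeq 2500.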

Sequence | self-splicing fitness (ln) (37 °C) | self-splicing fitness (ln) (30 °C)
CGCGAGCAAUAUUACGGCCA | -1.68 ± 0.39 | 
CAGCAGCAAUAUUACGGUAA | -1.41 ± 0.12 | -1.97 ± 0.12
UACCAGCAAUAUUACGCCAC | -3.17 ± 0.37 | -3.59 ± 0.2
GUGGAGCAAUAUUACGUCUU | -2.36 ± 0.36 | -2.36 ± 0.24
AGCUAGCAAUAUUACGCUCG | -1.53 ± 0.17 | -2.6 ± 0.19
GGGAAGCAAUAUUACGGCUC | 0.0488 ± 0.17 | -0.727 ± 0.12
UUCAAGCAAUAUUACGAUUG | -2.24 ± 0.27 | -3.63 ± 0.35
AAGAAGCAAUAUUACGCGCG | -0.0457 ± 0.15 | -0.562 ± 0.12
GAUUAGCAAUAUUACGUCGG | -3.05 ± 0.29 | -2.66 ± 0.24
CCCUAGCAAUAUUACGAGCG | -1.13 ± 0.19 | -2.86 ± 0.21
GCCCAGCAAUAUUACGAGGC | -2.5 ± 0.22 | -3.64 ± 0.2
GAUCAGCAAUAUUACGUCUC | 0.0417 ± 0.13 | -0.796 ± 0.1
AUCUAGCAAUAUUACGGAUU | -2.38 ± 0.23 | -4.46 ± 0.32
GGGUAGCAAUAUUACGAUGU | 0.357 ± 0.15 | -0.794 ± 0.1
CAAUAGCAAUAUUACGAAAU | -2.42 ± 0.23 | -3.12 ± 0.15
AAUUAGCAAUAUUACGCAUC | -1.15 ± 0.2 | -2.79 ± 0.24
AACCAGCAAUAUUACGACAU | 0.152 ± 0.031 | -0.243 ± 0.01
ACAUAGCAAUAUUACGCCCA | -0.85 ± 0.15 | -0.769 ± 0.13
UUGCAGCAAUAUUACGCGAA | -0.846 ± 0.14 | -0.925 ± 0.16
UUCGAGCAAUAUUACGUUCU | -0.345 ± 0.16 | -1.47 ± 0.15
ACGGAGCAAUAUUACGUAAU | -2.39 ± 0.48 | -3.61 ± 0.41
UCCGAGCAAUAUUACGCGGA |  | -2.27 ± 0.3
UAGAAGCAAUAUUACGGAGA | -2.46 ± 0.26 | -3.26 ± 0.39
UAUUAGCAAUAUUACGAUUG | -0.0341 ± 0.14 | -1.08 ± 0.089

Sequence | self-splicing fitness (ln) (37 °C) | self-splicing fitness (ln) (30 °C)
GACGAGCAAUAUUACGAUUA | -1.55 ± 0.22 | -2.73 ± 0.23
GGCUAGCAAUAUUACGGGCA | 0.0658 ± 0.092 | 0.122 ± 0.082
CCGAAGCAAUAUUACGCACA | -2.59 ± 0.28 | -3.87 ± 0.37
AAAUAGCAAUAUUACGGUCC | -0.378 ± 0.19 | -1.33 ± 0.12
AACCAGCAAUAUUACGUCCG | -0.0163 ± 0.091 | -1.56 ± 0.073
UCGUAGCAAUAUUACGCUUG | -0.409 ± 0.14 | -2.53 ± 0.17
CCCAAGCAAUAUUACGAUAU | -3.25 ± 0.15 | -3.29 ± 0.19
GUGGAGCAAUAUUACGCACG | -2.32 ± 0.25 | -2.63 ± 0.29
AAGCAGCAAUAUUACGCCAG | -1.43 ± 0.41 | -2.67 ± 0.36
UGAAAGCAAUAUUACGUAUU | -2.19 ± 0.12 | -3.21 ± 0.13
AACAAGCAAUAUUACGCCAC | -2.83 ± 0.47 | -3.71 ± 0.4
UCCUAGCAAUAUUACGAUGG | -2.15 ± 0.21 | -3.64 ± 0.23
CCAAAGCAAUAUUACGAGGC | -2.46 ± 0.22 | -4.23 ± 0.27
GCGCAGCAAUAUUACGGAUC | 0.419 ± 0.083 | -0.0635 ± 0.068
AAAUAGCAAUAUUACGCUGU | -1.89 ± 0.1 | -3.27 ± 0.14
UUGCAGCAAUAUUACGACUA | 0.519 ± 0.12 | 0.37 ± 0.1
CGAUAGCAAUAUUACGGAGA | -2.4 ± 0.29 | -3.98 ± 0.42
CAACAGCAAUAUUACGGCUG | -1.24 ± 0.11 | -1.27 ± 0.077
CACGAGCAAUAUUACGGUCA | -1.54 ± 0.16 | -4.22 ± 0.39
GUCGAGCAAUAUUACGUCCA | -2.53 ± 0.26 | -2.21 ± 0.22
CAGUAGCAAUAUUACGUCAG | 0.623 ± 0.095 | -0.873 ± 0.07
UCAUAGCAAUAUUACGGAAA | -2.4 ± 0.28 | -2.84 ± 0.41
GGAUAGCAAUAUUACGGCAG | -2.18 ± 0.22 | 
UUAAAGCAAUAUUACGUACU | -0.142 ± 0.099 | -0.208 ± 0.079

Sequence | self-splicing fitness (ln) (37 °C) | self-splicing fitness (ln) (30 °C)
UAUUAGCAAUAUUACGGUUA | -0.239 ± 0.11 | 0.108 ± 0.097
UAAAAGCAAUAUUACGGCGG | -0.0776 ± 0.11 | -0.373 ± 0.078
GGUUAGCAAUAUUACGAAUC | -1.06 ± 0.24 | -1.76 ± 0.16
CAACAGCAAUAUUACGGCUA | -0.553 ± 0.073 | -1.28 ± 0.073
CGCUAGCAAUAUUACGACCG | -0.347 ± 0.15 | -1.12 ± 0.11
CUGCAGCAAUAUUACGGCUA | -0.78 ± 0.17 | -2.6 ± 0.19
UGAGAGCAAUAUUACGUCUU | -1.9 ± 0.28 | -3.18 ± 0.44
CAUGAGCAAUAUUACGCCGU | -3.36 ± 0.26 | -3.93 ± 0.37
CCCGAGCAAUAUUACGCUGC | -2.63 ± 0.3 | -2.93 ± 0.21
GUCAAGCAAUAUUACGGAAU | -1.09 ± 0.12 | -2.07 ± 0.12
UUGUAGCAAUAUUACGCGAA | -1.73 ± 0.28 | -1.02 ± 0.21
GCUCAGCAAUAUUACGUACA | -0.932 ± 0.14 | -2.16 ± 0.12
AUCGAGCAAUAUUACGGUUA | -1.04 ± 0.13 | -3.3 ± 0.23
GUUAAGCAAUAUUACGCGCU | -1.63 ± 0.2 | -2 ± 0.16
CGAUAGCAAUAUUACGGGUA | -2.64 ± 0.2 | -3.87 ± 0.4
GAGUAGCAAUAUUACGCCGA | -0.774 ± 0.13 | -1.54 ± 0.17
UCCCAGCAAUAUUACGCUUU | -2 ± 0.15 | -2.7 ± 0.16
CCUGAGCAAUAUUACGCCAA |  | -2.85 ± 0.44
UACCAGCAAUAUUACGGGAA | -0.618 ± 0.08 | -0.38 ± 0.087
GGAAAGCAAUAUUACGUAUU | -1.45 ± 0.16 | -1.25 ± 0.13
UCGUAGCAAUAUUACGGGUU | -2.38 ± 0.23 | -3.23 ± 0.18
UGUUAGCAAUAUUACGUAAG | -0.452 ± 0.14 | -0.949 ± 0.097
AGCUAGCAAUAUUACGAUUU | 0.214 ± 0.086 | -0.0195 ± 0.06
GGAAAGCAAUAUUACGGAGA | -2.54 ± 0.26 | -1.97 ± 0.27

Sequence | self-splicing fitness (ln) (37 °C) | self-splicing fitness (ln) (30 °C)
AAUCAGCAAUAUUACGUUCU | 0.0857 ± 0.085 | 0.0868 ± 0.061
GGCCAGCAAUAUUACGCAGA | -1.28 ± 0.08 | -1.66 ± 0.082
GCUAAGCAAUAUUACGACGC | -0.603 ± 0.18 | -1.52 ± 0.16
GAUCAGCAAUAUUACGCGAA | -0.586 ± 0.09 | -1.49 ± 0.086
UUAGAGCAAUAUUACGUUGG | -1.59 ± 0.14 | -1.89 ± 0.1
UUCCAGCAAUAUUACGCUGA | -1.91 ± 0.14 | -3.73 ± 0.24
GAUCAGCAAUAUUACGACUA | -0.914 ± 0.2 | -0.353 ± 0.4
UUAGAGCAAUAUUACGACAG | -0.391 ± 0.1 | -0.55 ± 0.082
UUUCAGCAAUAUUACGAAGU | 0.335 ± 0.25 | -1.82 ± 0.22
GGUGAGCAAUAUUACGGACA | -0.688 ± 0.16 | -1.48 ± 0.17
UGUCAGCAAUAUUACGCGCG | 0.0603 ± 0.13 | -0.708 ± 0.14
GUGAAGCAAUAUUACGAAGU | -1.05 ± 0.16 | -0.832 ± 0.14
GGGAAGCAAUAUUACGGGCC | -0.949 ± 0.13 | -2.03 ± 0.14
AGAAAGCAAUAUUACGAAUA | -0.949 ± 0.14 | -2.51 ± 0.17
UGCCAGCAAUAUUACGAGCA | -0.682 ± 0.27 | -1.75 ± 0.26
UCGAAGCAAUAUUACGUGGU | -2.88 ± 0.24 | -3.51 ± 0.18
AACCAGCAAUAUUACGAUGG | -2.76 ± 0.14 | -2.91 ± 0.11
UCCGAGCAAUAUUACGCAGC | -2.51 ± 0.39 | -4.03 ± 0.35
CCGGAGCAAUAUUACGUUCA | -1.63 ± 0.29 | -1.23 ± 0.17
GGAUAGCAAUAUUACGUGAU | -1.06 ± 0.074 | -2.44 ± 0.06
UUUAAGCAAUAUUACGUUGG | -1.67 ± 0.17 | -1.45 ± 0.1
UAGCAGCAAUAUUACGGUCC | -2.03 ± 0.24 | -3.66 ± 0.26
GACUAGCAAUAUUACGAAGA | -0.416 ± 0.13 | -1.87 ± 0.13
UGGCAGCAAUAUUACGAGAG | -2.74 ± 0.29 | -2.95 ± 0.21
